Measurements from paper PMC4288174 (Nucleic Acids Research, 2014).

Biological target: Recombinant hemagglutinin-tagged full-length CSB (human, UniProt Q03468 1-1493)
Test: pull-down; ΔN-SNM1A (500 ng) with or without HA-CSB (500 ng) and α-HA magnetic beads; 20 mM HEPES pH 7.9, 4 mM MgCl2, 0.05 mM ATP, 40 μg/ml BSA, 1 mM DTT, 4°C, 2 h; silver stain
Settings: both partners purified

Recombinant hemagglutinin-tagged full-length CSB, sequence (Q03468 whole entry): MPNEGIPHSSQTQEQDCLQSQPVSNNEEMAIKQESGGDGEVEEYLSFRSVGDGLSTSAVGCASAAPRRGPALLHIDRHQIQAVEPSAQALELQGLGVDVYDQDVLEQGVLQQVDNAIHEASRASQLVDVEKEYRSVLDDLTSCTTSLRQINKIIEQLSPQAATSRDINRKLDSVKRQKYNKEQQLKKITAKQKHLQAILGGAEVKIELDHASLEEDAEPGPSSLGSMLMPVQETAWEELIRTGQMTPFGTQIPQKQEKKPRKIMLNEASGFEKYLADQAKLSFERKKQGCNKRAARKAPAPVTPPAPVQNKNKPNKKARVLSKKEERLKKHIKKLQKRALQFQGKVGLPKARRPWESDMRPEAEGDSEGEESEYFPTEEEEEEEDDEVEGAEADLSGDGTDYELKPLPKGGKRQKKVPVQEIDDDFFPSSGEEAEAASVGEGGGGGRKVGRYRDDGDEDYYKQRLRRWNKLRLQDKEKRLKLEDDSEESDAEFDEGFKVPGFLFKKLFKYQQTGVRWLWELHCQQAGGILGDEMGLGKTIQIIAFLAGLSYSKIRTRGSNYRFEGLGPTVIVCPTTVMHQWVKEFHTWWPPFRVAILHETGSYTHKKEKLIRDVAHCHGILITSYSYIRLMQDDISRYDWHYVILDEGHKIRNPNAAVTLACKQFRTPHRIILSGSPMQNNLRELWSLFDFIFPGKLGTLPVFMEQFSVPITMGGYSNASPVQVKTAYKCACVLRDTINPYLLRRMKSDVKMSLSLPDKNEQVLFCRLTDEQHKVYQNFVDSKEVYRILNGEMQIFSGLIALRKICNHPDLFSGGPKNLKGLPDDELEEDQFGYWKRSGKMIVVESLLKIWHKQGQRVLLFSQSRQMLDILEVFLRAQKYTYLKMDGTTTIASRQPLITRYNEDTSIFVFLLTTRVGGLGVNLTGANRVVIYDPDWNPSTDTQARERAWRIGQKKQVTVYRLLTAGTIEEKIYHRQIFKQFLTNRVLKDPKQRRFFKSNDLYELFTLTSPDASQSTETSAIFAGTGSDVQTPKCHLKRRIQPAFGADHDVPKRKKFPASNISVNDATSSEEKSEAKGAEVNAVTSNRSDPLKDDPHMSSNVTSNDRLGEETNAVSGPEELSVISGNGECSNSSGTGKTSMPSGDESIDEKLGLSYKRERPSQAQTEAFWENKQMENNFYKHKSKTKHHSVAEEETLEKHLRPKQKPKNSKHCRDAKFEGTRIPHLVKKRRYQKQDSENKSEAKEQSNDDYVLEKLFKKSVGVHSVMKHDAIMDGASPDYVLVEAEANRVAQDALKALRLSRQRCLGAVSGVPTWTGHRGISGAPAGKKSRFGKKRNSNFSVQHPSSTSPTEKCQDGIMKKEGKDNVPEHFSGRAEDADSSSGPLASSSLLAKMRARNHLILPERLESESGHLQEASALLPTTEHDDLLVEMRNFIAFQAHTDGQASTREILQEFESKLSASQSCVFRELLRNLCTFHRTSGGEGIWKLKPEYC

- binding result: binds
B1: SNM1A nuclease fragment consisting of residues 608 to 1040 (domain or fragment, human, UniProt Q6PJP8 608-1040, looked up)
chain: SDLEFDASTLHESQLSVELSSERSQRQKKRCRKSNSLQEGACQKRSDHLINTESEAVNLSKVKVFTKSAHGGLQRGNKKIPESSNVGGSRKKTCPFYKKIPGTGFTVDAFQYGVVEGCTAYFLTHFHSDHYAGLSKHFTFPVYCSEITGNLLKNKLHVQEQYIHPLPLDTECIVNGVKVVLLDANHCPGAVMILFYLPNGTVILHTGDFRADPSMERSLLADQKVHMLYLDTTYCSPEYTFPSQQEVIRFAINTAFEAVTLNPHALVVCGTYSIGKEKVFLAIADVLGSKVGMSQEKYKTLQCLNIPEINSLITTDMCSSLVHLLPMMQINFKGLQSHLKKCGGKYNQILAFRPTGWTHSNKFTRIADVIPQTKGNISIYGIPYSEHSSYLEMKRFVQWLKPQKIIPTVNVGTWKSRSTMEKYFREWKLEAGY
